Reference: patent US20250277029A1 (Amgen, published 2025)
Changes are numbered by the printed parent chain. In names and notes the source's numbering stands.

B1: LIBC527827-1 (antibody, V domains shown)
VH: QVQLQESGPGLVKPSQTLSLTCTVSGGSIRRGGDYWGWIRQHPGKGLEWIGHVYQSGQTAYNPKFENRATISVKTYKNQFSLKLSSVTAADTAVYYCARNYDTLTGHSYYYYGMDVWGQGTTVTVSS
VL: DIQMTQSPSTLSASVGDRVTITCRASQSISNYLNWYQQKPGKAPKLLIYAASSLHSGVPSRFSGSGSGTDFTLTISSLQPEDFASYYCQQYQSYPLTFGQGTKVEIKR
notes: also called LIBC527827-1 + VK1 germline fix(es)
B2: LIBC527984-1 (antibody, V domains shown)
VH: QVQLQESGPGLVKPSQTLSLTCTVSGGSIRRGGDYWSWIRQHPGKGLEWIGHIYQTGKTNYNPNFKSRATISVNTYKNQFSLKLSSVTAADTAVYYCARDYDILTGYSYYYYGMDVWGQGTTVTVSS
VL: B1 VL
notes: also called LIBC527984-1 + VK1 germline fix(es)
B3: LIBC528141-1 (antibody, V domains shown)
VH: B2 VH with I53V, K58S, N60K, N64R, S67G
VL: B1 VL with M4L
B4: LIBC528169-1 (antibody, V domains shown)
VH: B2 VH with T56S, K58S, N60K, N64S, K66E, S67D
VL: B1 VL with M4L
notes: also called LIBC528169-1 + VK1 germline fix(es)
B5: LIBC527869-1 (antibody, V domains shown)
VH: B2 VH with S28N, S37A, Q55H, N64S, S67G, N74K, D100N, I103T, T105S, Y107N
VL: B1 VL with M4L
notes: also called LIBC527869-1 + VK1 germline fix(es)
B6: LIBC527906-1 (antibody, V domains shown)
VH: B2 VH with S37G, K58S, S67D, N74D
VL: B1 VL with M4L
notes: also called LIBC527906-1 + VK1 germline fix(es)
B7: LIBC527968-1 (antibody, V domains shown)
VH: B2 VH with T56S, K58S, N60K, N64S, S67D
VL: B1 VL with M4L
notes: also called LIBC527968-1 + VK1 germline fix(es)
B8: LIBC523797-1 (antibody, V domains shown)
VH: B2 VH with I53V, Q55Y, K58S, N60K, S67G
VL: DIVMTQSPLSLPVTPGEPASISCRSSQSLLTSYGINYVDWYLQKPGQSPQLLIYQGSNRASGVPDRFSGSGSGTDFTLKISRVEAEDVGVYYCRQAVGLPRTFGQGTKVEIKR
notes: Expressed as IgG1 SEFL2 mAb
B9: 10D10 HC D83K/LC N35Y (26970-1) (antibody, V domains shown)
VH: B2 VH with H52Y, Q55Y, T56S, K58S, N64S, F65L, N74K, Y76S
VL: not shown
notes: Earlier 10D10 variant used as benchmark
B10: LIBC527912-1 (antibody, V domains shown)
VH: B2 VH with H52Y, K58Q, N60K, K66E, S67G
VL: B1 VL with M4L, T10S, N31S, H55R, S85T, Q92S, S93N, Q100G, K103R
B11: LIBC528131-1 (antibody, V domains shown)
VH: B2 VH with K58Q, N60A, F65L, K66E, S67G
VL: EIVLTQSPATLSLSPGERATLSCRASQSVSSYLGWYQQKPGQAPRLLIYGASSRATGIPDRFSGSGSGTDFTLTISRLEPEDFAVYYCQQYGSSPRTFGQGTKVEIKR
notes: VK3 LC
B12: LIBC523670-1 (antibody, V domains shown)
VH: B1 VH with G37A, S56T, K64N, F65L, N67S, K74N, T103V, T105S, H107Y
VL: B8 VL with I35A, V38L, R94M, V97L, G98Q, L99I
notes: also called LIBC523670-1 + VK2 germline fix
B13: LIBC523857-1 (antibody, V domains shown)
VH: B2 VH with K58Q, N60A, N64R, F65L, K66E, S67G
VL: B8 VL with T31S, Y33T, I35A, V38L, Q55L, G98E
B14: LIBC523603-1 (antibody, V domains shown)
VH: B1 VH with G37A, K64N, K74N, N100D, T103A, L104V, T105S, H107Y
VL: B8 VL with T31S, I35N
B15: LIBC523862-1 (antibody, V domains shown)
VH: B2 VH with K58S, N60A, N64S, F65L, S67G
VL: B8 VL with T31H, Y33T, I35A, Q55L, V97I, G98A
B16: LIBC523748-1 (antibody, V domains shown)
VH: B2 VH with I53V, Q55Y, K58S, N60K, N64S, K66E, S67G, N74K
VL: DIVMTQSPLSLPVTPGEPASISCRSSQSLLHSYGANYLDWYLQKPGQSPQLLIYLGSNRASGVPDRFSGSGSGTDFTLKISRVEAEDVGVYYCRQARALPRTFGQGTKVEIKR
B17: LIBC523815-1 (antibody, V domains shown)
VH: B2 VH with T56S, K58Q, N60K, N64S, F65L, S67D
VL: B8 VL with Y33S, I35A, Q55L, V97R, G98E, L99Q
B18: LIBC527879-1 (antibody, V domains shown)
VH: B2 VH with S37G, T56S, K58S, N64K, F65L, N74D, L104F
VL: B1 VL with M4L, T10S, S30I, N31S, H55R, S85T, Q92S, S93N, Q100G, K103R
B19: LIBC523868-1 (antibody, V domains shown)
VH: B2 VH with I53V, Q55Y, T56E, K58S, N60A, N64S, K66E, S67D
VL: B8 VL with Q55L, R94M, V97R, G98Q, L99I
B20: LIBC523760-1 (antibody, V domains shown)
VH: B2 VH with I53V, K58S, N60K, N64K, S67G
VL: B8 VL with Y33S, I35A, Q55L, L99T
B21: LIBC523813-1 (antibody, V domains shown)
VH: B2 VH with I53V, Q55Y, K58Q, N60A, N64K, S67D, N74K
VL: B8 VL with T31S, Y33S, I35A, Q55L, R94M, V97R, L99I
notes: also called LIBC523813-1 + VK2 germline fix

Tests used:
[1] = target: T1, GFP-fused huCB1-SMALP (human CB1 in styrene maleic acid lipoparticles) (human, UniProt P21554 1-472); assay: flow cytometry, yeast-displayed IgG, GFP MFI
T1 construct: Prepared as in Luna V. et al. 2018; also called huCB1-GFP-SMALP; wtCB1-SMALP; not shown: GFP fusion

[2] = target: T2, His-tagged huCB1-ND (human CB1 in nanodisc) (human); assay: flow cytometry, yeast-displayed IgG, binding/display ratio
T2 construct: CB1 construct of Cell 167(3) (2016) 750-762 expressed in Sf9 cells; POPC:MSP1D1:CB1 480:8:1; also called CB1-nanodisc; huCB1-Nanodisc; not shown: histidine purification tag

[3] = target: T3, empty-ND (nanodisc without CB1); assay: as above
T3 construct: its only protein is the nanodisc scaffold; also called Empty Nanodisc

[4] = target: human cannabinoid receptor 1 (huCB1), full length, expressed on cells (human, UniProt P21554 1-472); assay: cell-based or functional assay
huCB1 nanodisc (CB1-ND) = target: T4, huCB1 nanodisc (CB1-ND) (human, UniProt P21554 99-414); assay: Octet BLI; antibody captured by anti-human Fc, CB1-nanodisc in solution, 1:1 model
T4 construct: The His-tagged CB1 is embedded in a POPC lipid nanodisc with MSP1D1 scaffold protein (molar ratio 480:8:1); also called huCB1-ND; #CB1-008

[5] = target: T5, human cannabinoid receptor type 2 (CB2) (human, UniProt P34972 1-360); assay: fold over mock (Table 14)
T5 construct: also called huCB2; full length hu CB2

mouse CB1 = target: T6, mouse CB1 (mouse, UniProt P47746 1-473); assay: fold over mock (Table 14)
T6 construct: also called muCB1; murine CB1

[6] = target: T1, GFP-fused huCB1-SMALP (human CB1 in …); assay: flow cytometry, yeast-displayed IgG, GFP MFI; remark: listed apart in the source
[7] = target: T2, His-tagged huCB1-ND (human CB1 in …); assay: flow cytometry, yeast-displayed IgG, binding/display ratio; remark: listed apart in the source
[8] = target: T2, His-tagged huCB1-ND (human CB1 in …); assay: flow cytometry, yeast-displayed IgG, huCB1-ND over empty-ND

T1 sequence (P21554 whole entry, the tested form may be a part): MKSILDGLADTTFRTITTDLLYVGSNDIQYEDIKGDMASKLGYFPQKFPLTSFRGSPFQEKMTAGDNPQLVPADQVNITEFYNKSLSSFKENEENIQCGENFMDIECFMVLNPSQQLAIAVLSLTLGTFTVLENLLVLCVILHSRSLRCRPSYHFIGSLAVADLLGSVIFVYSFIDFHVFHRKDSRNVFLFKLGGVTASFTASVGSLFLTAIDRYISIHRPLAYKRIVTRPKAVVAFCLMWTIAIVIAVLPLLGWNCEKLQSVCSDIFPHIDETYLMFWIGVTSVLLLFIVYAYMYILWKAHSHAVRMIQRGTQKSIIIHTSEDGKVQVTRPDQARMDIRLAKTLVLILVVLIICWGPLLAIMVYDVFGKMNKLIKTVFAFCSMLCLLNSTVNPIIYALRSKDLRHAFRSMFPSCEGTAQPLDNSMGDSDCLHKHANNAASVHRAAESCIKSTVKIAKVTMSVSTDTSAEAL
human cannabinoid receptor 1 (huCB1), full length, expressed on cells, sequence (P21554 whole entry): as the sequence (P21554 whole entry, the tested form may be a part) above
T2 sequence (P21554 99-414): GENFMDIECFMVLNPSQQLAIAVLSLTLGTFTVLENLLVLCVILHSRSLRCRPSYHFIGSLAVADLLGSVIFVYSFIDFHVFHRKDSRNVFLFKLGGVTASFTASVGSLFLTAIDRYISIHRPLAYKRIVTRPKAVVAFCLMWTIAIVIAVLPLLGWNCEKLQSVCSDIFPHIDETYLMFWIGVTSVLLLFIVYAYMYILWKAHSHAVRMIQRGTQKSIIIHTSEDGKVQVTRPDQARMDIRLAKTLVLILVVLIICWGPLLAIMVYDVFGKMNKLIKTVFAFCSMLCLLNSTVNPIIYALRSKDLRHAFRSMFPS
T6 sequence (P47746 whole entry): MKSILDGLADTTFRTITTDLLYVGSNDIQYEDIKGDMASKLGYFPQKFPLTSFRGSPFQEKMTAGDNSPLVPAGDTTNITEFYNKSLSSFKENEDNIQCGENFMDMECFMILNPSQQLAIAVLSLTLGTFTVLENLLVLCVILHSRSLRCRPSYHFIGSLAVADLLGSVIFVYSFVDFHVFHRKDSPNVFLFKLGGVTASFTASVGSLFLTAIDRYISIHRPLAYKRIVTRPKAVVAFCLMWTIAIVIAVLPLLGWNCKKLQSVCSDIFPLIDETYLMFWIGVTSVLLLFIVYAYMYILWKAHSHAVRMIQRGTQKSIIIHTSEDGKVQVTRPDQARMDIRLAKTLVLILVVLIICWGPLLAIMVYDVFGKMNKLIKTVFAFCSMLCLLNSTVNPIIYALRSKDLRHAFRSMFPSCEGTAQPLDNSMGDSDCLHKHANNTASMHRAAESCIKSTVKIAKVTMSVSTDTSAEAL
T5 sequence (P34972 whole entry): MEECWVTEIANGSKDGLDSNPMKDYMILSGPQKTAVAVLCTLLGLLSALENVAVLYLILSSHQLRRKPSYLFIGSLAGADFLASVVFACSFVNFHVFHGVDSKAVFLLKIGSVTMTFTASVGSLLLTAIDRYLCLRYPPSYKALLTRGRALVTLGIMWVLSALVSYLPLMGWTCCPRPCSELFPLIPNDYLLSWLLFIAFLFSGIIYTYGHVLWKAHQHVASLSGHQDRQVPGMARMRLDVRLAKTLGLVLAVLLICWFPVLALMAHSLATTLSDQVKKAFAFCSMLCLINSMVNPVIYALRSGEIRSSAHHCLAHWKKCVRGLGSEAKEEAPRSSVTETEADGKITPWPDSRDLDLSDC
T4 sequence (P21554 99-414 limits assumed): as the sequence (P21554 99-414) above

| Binder | 100 nM huCB1-GFP-SMALP binding (normalized to 10D10N35Y) [1] [fold] | 0.200 nM huCB1-Nanodisc binding (relative to 10D10N35Y) [2] [fold] | 50.0 nM Empty Nanodisc binding (relative to 10D10N35Y) [3] [fold] | 100 nM huCB1-SMALP binding (normalized to 10D10) [6] [fold] | relative binding to 0.2 nM huCB1-ND (relative to 10D10N35Y) [7] [fold] | specific huCB1 binding (CB1 ND/Empty ND ratio) [8] [ratio] | other results |
| --- | --- | --- | --- | --- | --- | --- | --- |
| B1 | 4.99 | 4.31 | 1.16 |  |  |  |  |
| B2 | 4.85 | 5.21 | 0.61 |  |  |  |  |
| B3 | 8.31 | 6.2 | 0.49 |  |  |  |  |
| B4 | 4.58 | 4.82 | 0.68 |  |  |  |  |
| B5 | 3.61 | 4.15 | 0.97 |  |  |  |  |
| B6 | 3.79 | 8.02 | 0.51 |  |  |  |  |
| B7 | 4.65 | 4.86 | 0.64 |  |  |  |  |
| B8 |  |  |  |  |  |  | Antagonist assay IC50 (nM), 2-AG [4]: 2.9 nM; Antagonist assay IC50 (nM), Anandamide [4]: 10.4 nM; Antagonist assay IC50 (nM), CP 55,940 [4]: 3.4 nM; Inverse agonist assay IC50 [4]: 14.1 nM; Kd (huCB1 nanodisc (CB1-ND)): 18 nM |
| B9 |  |  |  |  |  |  | binding result [5]: no binding; binding result (mouse CB1): no binding |
| B10 | 4.32 | 5.95 | 0.51 |  |  |  |  |
| B11 | 3.68 | 4.47 | 0.63 |  |  |  |  |
| B12 |  |  |  | 5.42 | 7.46 | 23 |  |
| B13 |  |  |  | 4.71 | 4.05 | 13.9 |  |
| B14 |  |  |  | 4.05 | 6.05 | 19.4 |  |
| B15 |  |  |  | 3.97 | 5.07 | 13.6 |  |
| B16 |  |  |  | 6.12 | 4.41 | 5.33 |  |
| B17 |  |  |  | 4.55 | 6.15 | 14.8 |  |
| B18 | 3.24 | 5.75 | 0.73 |  |  |  |  |
| B19 |  |  |  | 4.21 | 6.28 | 13.3 |  |
| B20 |  |  |  | 5.7 | 4.19 | 7.21 |  |
| B21 |  |  |  | 6.32 | 3.38 | 5.79 |  |
